Assay [1] deals with Monoclonal antibody against the SARS-CoV-2 Spike protein (A02038, Genscript).
Assay [2] has as its target Monoclonal antibody against the SARS-CoV-2 Nucleocapsid protein (A02039, Genscript).
In assay [3] the target is T1, Recombinant SARS-CoV-2 Spike protein antigen (Z03501, Genscript) (SARS-CoV-2, UniProt P0DTC2 16-685).
T1 construct: also called S antigen; S protein antigen
Briefly: dot blot dipstick, gold nanoparticles with fusion protein and no antibody.

The target in assay [4] is T2, Recombinant SARS-CoV-2 Nucleocapsid protein antigen (Z03488, Genscript) (SARS-CoV-2, UniProt P0DTC9 1-419).
T2 construct: also called N protein antigen; Nucleocapsid antigen
The assay is described as above.

B1: Gold-binding fusion protein EMT-003 (Protein G' - linker - gold binding protein) (other)
chain: MTYKLILNGKTLKGETTTEAVDAATAEKVFKQYANDNGVDGEWTYDDATKTFTVTEKPEVIDASELTPAVTTYKLVINGKTLKGETTTEAVDAATAEKVFKQYANDNGVDGEWTYDDATKTFTVTEKPEVIDASELTPAVTTYKLVINGKTLKGETTTKAVDAETAEKAFKQYANDNGVDGVWTYDDATKTFTVTEGGGGSGGGGSGGGGSASGGGMHGKTQATSGTIQSMHGKTQATSGTIQSMHGKTQATSGTIQSMHGKTQATSGTIQSMHGKTQATSGTIQSMHGKTQATSGTIQSMHGKTQATSGTIQS
notes: also called EMT-03; gold fusion protein
For orientation: Kd means the equilibrium constant for the complex coming apart. The koff is the first-order rate constant of dissociation. High values mean fast dissociation, low ones slow dissociation. The kon is the second-order rate constant of association. A higher kon goes with fast association. Consider B1, for which the equilibrium dissociation constant (Kd) was 0.192 nM in assay [1] and 0.258 nM in assay [2]. The koff came out at 0.000103 s⁻¹ in assay [1] and 0.000149 s⁻¹ in assay [2]. Also, the kon was determined as 537000 M⁻¹ s⁻¹ in assay [1] and 577000 M⁻¹ s⁻¹ in assay [2]. Besides, the binding result in assay [3] and in assay [4] was “no binding (tested: 0.5 µg antigen spotted)” throughout.

The values are drawn from patent US20230341395A1 (GEMINA LABORATORIES, published 2023).
